This is an account of results in patent US20240279630, “ISOLATED CAS13 PROTEIN AND USE THEREOF” (GUANGZHOU REFORGENE MEDICINE CO., LTD., published 2024).

The subject of one data set is CasRx (Cas13d). As to the kind of experiment: cell_activity.
A further data set addresses T1, Cas13m.3 (uncultured Bacteroidetes bacterium).
T1 chain: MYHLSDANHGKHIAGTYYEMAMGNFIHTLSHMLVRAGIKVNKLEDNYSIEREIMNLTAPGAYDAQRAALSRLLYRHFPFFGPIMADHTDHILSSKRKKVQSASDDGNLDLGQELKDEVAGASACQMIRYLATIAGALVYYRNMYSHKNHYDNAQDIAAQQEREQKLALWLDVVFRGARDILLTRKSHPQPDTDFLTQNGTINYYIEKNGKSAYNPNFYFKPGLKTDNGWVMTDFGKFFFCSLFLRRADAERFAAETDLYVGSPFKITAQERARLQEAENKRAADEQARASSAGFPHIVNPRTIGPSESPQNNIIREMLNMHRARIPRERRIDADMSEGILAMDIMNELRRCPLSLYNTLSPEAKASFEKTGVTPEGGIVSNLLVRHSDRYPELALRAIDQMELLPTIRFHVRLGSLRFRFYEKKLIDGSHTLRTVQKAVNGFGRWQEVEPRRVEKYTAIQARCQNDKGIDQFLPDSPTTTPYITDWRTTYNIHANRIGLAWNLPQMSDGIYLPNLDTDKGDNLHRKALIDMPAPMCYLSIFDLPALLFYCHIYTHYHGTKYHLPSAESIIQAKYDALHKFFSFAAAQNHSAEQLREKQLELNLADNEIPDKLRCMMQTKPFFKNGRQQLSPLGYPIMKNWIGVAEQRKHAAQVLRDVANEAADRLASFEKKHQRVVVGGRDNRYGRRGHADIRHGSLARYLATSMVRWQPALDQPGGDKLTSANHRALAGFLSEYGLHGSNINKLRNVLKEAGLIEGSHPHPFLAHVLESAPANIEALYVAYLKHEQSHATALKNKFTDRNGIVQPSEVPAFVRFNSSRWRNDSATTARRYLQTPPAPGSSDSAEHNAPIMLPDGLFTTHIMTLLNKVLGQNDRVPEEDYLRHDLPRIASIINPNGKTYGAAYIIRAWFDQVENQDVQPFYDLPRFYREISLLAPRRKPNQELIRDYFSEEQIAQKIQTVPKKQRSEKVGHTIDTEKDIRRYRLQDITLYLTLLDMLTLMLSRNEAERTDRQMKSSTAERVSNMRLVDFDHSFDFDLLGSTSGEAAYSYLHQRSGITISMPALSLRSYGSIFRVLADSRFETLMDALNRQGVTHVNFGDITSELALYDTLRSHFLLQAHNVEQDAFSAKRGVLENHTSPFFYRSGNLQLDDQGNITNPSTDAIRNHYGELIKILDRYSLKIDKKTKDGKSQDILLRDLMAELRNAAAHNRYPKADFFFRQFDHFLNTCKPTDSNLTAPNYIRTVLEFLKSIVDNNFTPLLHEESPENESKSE
As to the kind of experiment: cell_activity; 293T, 72 h. The conditions noted are these: tags: NLS fusion. As for the experimental part:
(§1) The 293T cells were transfected with the PTBP1-targeting plasmids of Cas13 m.2, Cas13 m.3, Cas13 m.5, CasRfg.2 and CasRx at 800 ng in a 24-well plate. The negative control group was transfected with the CasRx-BpiI plasmid.
(§2) The transfection method was as follows: [0276] 1) The cells were digested by trypsin (0.25% of Trypsin, EDTA, Thermo, 11058021), counted, and plated into a 24-well plates at 2×10⁵ cells according to 500 uL per well. [0277] 2) For each transfected sample, the complex was prepared according to the following steps: [0278] a. each well of the 24-well plate into which the cells were added, were added with 50 uL of serum-free Opti-MEM I (Thermo, 25200056) reduced serum medium for dilution of the aforementioned plasmid DNA, and mixed gently; [0279] b. it was gently mixed with Lipofectamine 2000 (Thermo, 11668019) before use, and then 1.8 uL of the Lipofectamine 2000 was diluted in each well, i.e., in 50 uL of the Opti-MEM I medium. It was incubated at room temperature for 5 minutes. Note: it was continued to perform step c within 25 minutes; [0280] c. after incubation for 5 minutes, the diluted DNA was combined with the diluted Lipofectamine 2000. They were gently mixed and incubated at room temperature for 20 minutes (the solution might be cloudy visually). Note: the complex was stabilized at room temperature for 6 hours.
(§3) The complex was added into the cells and mixed, and then detected with a QuantStudio™ 5 Real-Time PCR System, 96-well after 72 h.

The target in a further data set is T2, Cas13m.2 (metagenome).
T2 chain: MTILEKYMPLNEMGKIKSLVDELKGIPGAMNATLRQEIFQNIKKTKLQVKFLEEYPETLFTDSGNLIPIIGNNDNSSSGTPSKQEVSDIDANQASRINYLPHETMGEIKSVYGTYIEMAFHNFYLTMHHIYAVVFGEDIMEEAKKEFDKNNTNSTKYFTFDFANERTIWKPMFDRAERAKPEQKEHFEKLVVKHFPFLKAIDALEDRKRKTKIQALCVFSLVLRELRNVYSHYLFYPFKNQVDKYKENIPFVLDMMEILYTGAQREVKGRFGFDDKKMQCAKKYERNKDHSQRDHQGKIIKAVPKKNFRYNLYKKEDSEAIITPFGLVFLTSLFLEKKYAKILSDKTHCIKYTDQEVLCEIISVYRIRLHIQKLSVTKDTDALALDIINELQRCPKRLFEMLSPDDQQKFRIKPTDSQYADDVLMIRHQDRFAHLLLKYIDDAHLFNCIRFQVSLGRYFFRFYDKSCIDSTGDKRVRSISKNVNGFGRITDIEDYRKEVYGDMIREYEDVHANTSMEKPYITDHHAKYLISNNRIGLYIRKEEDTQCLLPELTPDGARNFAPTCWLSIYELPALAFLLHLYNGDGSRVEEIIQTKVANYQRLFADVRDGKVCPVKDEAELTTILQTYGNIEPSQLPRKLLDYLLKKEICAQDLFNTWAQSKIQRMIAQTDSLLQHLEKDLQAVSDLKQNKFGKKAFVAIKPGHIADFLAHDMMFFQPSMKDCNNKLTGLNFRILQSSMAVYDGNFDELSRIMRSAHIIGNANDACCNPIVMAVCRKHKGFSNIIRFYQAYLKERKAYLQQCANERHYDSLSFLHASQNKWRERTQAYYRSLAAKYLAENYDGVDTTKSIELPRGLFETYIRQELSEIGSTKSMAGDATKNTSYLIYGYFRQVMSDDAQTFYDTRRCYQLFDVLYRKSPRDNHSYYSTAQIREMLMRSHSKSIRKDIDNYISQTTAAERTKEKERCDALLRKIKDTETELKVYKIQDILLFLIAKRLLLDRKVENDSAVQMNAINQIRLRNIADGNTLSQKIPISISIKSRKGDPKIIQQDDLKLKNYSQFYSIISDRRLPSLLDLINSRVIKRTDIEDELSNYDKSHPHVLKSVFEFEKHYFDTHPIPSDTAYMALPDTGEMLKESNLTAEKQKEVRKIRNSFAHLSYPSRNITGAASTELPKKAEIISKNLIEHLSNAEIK
Description: cell_activity; 293T, 72 h. The conditions noted are these: tags: NLS fusion. As for the experimental part:
as §1, §2, §3

The target in a further data set is T3, Cas13m.5 (Bacteroidetes bacterium).
T3 chain: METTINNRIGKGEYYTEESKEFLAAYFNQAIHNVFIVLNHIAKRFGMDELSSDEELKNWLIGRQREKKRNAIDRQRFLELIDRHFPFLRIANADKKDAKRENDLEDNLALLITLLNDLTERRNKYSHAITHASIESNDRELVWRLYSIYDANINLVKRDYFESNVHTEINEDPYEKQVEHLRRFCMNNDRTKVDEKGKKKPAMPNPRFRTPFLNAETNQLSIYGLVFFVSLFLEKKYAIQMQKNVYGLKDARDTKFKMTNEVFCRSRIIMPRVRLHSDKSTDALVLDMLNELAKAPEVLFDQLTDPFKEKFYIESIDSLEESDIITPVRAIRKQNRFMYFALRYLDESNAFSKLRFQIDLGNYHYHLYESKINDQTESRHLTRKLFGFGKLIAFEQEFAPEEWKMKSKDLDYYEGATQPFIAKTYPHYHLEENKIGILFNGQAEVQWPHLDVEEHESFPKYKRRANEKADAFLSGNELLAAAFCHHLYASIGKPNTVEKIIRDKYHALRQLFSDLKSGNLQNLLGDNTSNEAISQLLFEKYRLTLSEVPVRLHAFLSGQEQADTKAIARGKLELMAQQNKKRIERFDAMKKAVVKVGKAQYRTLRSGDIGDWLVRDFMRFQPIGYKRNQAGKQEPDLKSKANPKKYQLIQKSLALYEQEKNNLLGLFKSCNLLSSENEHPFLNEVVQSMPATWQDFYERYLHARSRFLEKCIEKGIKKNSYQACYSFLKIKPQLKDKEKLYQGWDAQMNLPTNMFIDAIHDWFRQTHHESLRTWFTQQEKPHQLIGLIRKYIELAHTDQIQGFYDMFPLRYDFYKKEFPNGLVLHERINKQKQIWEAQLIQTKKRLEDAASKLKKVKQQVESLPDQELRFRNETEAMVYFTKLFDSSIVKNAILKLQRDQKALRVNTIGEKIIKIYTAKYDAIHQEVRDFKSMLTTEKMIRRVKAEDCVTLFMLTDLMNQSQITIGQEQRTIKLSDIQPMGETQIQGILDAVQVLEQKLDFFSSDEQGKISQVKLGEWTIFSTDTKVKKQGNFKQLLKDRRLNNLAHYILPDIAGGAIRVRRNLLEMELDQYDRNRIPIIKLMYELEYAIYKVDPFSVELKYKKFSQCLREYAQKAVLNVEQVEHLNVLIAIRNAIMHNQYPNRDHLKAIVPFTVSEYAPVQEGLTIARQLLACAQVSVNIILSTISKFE
As to the kind of experiment: cell_activity; 293T, 72 h. The conditions noted are these: tags: NLS fusion. As to the method:
as §1, §2, §3

The target of another data set is T4, CasRfg.2 (Cas13d) (metagenome).
T4 chain: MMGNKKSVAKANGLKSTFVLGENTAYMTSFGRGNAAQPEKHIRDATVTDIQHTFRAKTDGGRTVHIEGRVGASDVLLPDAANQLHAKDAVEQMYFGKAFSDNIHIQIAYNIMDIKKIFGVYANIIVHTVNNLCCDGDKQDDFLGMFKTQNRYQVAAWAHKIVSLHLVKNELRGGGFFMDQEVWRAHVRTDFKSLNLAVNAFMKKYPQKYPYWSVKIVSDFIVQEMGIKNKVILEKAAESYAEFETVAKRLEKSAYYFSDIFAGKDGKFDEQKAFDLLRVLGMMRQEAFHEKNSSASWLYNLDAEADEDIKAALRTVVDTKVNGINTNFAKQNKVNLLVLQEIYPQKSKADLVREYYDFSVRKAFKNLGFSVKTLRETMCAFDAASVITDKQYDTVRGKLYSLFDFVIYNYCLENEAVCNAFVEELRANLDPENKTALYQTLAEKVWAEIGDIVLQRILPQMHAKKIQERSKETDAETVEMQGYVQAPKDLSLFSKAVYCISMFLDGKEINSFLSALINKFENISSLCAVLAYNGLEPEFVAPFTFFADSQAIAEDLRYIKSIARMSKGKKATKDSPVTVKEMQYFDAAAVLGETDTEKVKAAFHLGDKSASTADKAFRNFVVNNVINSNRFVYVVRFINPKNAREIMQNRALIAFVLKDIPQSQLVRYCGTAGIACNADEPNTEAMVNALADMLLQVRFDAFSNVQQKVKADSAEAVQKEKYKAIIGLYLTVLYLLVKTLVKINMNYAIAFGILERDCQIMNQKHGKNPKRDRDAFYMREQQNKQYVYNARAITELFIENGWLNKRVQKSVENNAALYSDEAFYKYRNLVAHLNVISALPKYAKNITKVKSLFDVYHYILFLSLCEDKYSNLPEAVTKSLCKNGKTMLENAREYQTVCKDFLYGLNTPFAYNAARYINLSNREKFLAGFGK
As to the kind of experiment: cell_activity; 293T, 72 h. The following applies: tags: NLS fusion. As for the experimental part:
as §1, §2, §3

In the case of “GUGGUUGGAGAACUGGAUGUAGAUGGGCUG / CAGCCCAUCUACAUCCAGUUCUCCAACCAC [PTBP1 gRNA CasRx (guide part only) ; PTBP1 mRNA site]”, the activity (relative mRNA level) in the data set on CasRx (Cas13d) (293T, 72 h, 0.59 in Table 10) stood at 0.6. As to “AGGGCAGAACCGAUGCUGAUGAAGAC / GUCUUCAUCAGCAUCGGUUCUGCCCU”, the activity (relative mRNA level) with CasRx (Cas13d) (control 1.00) was 0.03. “GAAGACAAAGAGGGUCGUGG / CCACGACCCUCUUUGUCUUC” displayed an activity (relative mRNA level) in the data set with CasRx (Cas13d) (293T-AQp1, 72 h) of 0.05.

B1: PTBP1 gRNA Cas13m.3 ; PTBP1 mRNA site (ssRNA ; ssRNA)
RNA 1: GUGGUUGGAGAACUGGAUGUAGAUGGGCUGGUUGUAGAAGCCGUUCAUUCGGGACGGUAUGACAAC
RNA 2: CAGCCCAUCUACAUCCAGUUCUCCAACCAC
For the molecule B1, the activity with Cas13m.3 was determined as 0.46 relative mRNA level.

B2: PTBP1 gRNA Cas13m.2 ; PTBP1 mRNA site (ssRNA ; ssRNA)
RNA 1: GUGGUUGGAGAACUGGAUGUAGAUGGGCUGGUUGUAGAUGACCUCGUUUUGGAGGGGAAACACAAC
RNA 2: CAGCCCAUCUACAUCCAGUUCUCCAACCAC
Take B2: in the data set with Cas13m.2, the activity came out at 0.49 relative mRNA level.

B3: PTBP1 gRNA Cas13m.5 ; PTBP1 mRNA site (ssRNA ; ssRNA)
RNA 1: GUGGUUGGAGAACUGGAUGUAGAUGGGCUGGUUGUGUGUGCCUUUCAAAUUGAAGGCGUUCCCAAC
RNA 2: CAGCCCAUCUACAUCCAGUUCUCCAACCAC
B3 registered an activity in the data set with Cas13m.5 of 0.7 relative mRNA level.

B4: PTBP1 gRNA CasRfg.2 ; PTBP1 mRNA site (ssRNA ; ssRNA)
RNA 1: GGUUUUACACCCGUGUAAAACUACACAGUUCUAAAACGUGGUUGGAGAACUGGAUGUAGAUGGGCUG
RNA 2: CAGCCCAUCUACAUCCAGUUCUCCAACCAC
In turn, B4 had an activity in the data set with CasRfg.2 (Cas13d) of 0.78 relative mRNA level.
